# Test system: Ser90 mutant DDX3
substance,measurement,value
GSK3,phosphorylation (32P incorporation),GSK3 fails to phosphorylate DDX3 with a point mutation at Ser90

# — US20100135951
